B2: refolding glyceraldehyde 3-phosphate dehydrogenase (rabbit GAPDH, GdnHCl-denatured and diluted into refolding buffer) (enzyme)
chain: not shown
notes: glyceraldehyde 3-phosphate dehydrogenase, rabbit (rabbit-muscle GAPDH, pdb 1J0X); Native GAPDH is a tetramer; The protein from tissue likely lacks the initiator methionine (surmise); also called rGAPDH; source: bought: Sigma-Aldrich (G2267), purified rabbit GAPDH; denatured in 3 M GdnHCl and diluted into buffer A
B3: wild-type trigger factor (natural protein)
chain: MQVSVETTQGLGRRVTITIAADSIETAVKSELVNVAKKVRIDGFRKGKVPMNIVAQRYGASVRQDVLGDLMSRNFIDAIIKEKINPAGAPTYVPGEYKLGEDFTYSVEFEVYPEVELQGLEAIEVEKPIVEVTDADVDGMLDTLRKQQATWKEKDGAVEAEDRVTIDFTGSVDGEEFEGGKASDFVLAMGQGRMIPGFEDGIKGHKAGEEFTIDVTFPEEYHAENLKGKAAKFAINLKKVEERELPELTAEFIKRFGVEDGSVEGLRAEVRKNMERELKSAIRNRVKSQAIEGLVKANDIDVPAALIDSEIDVLRRQAAQRFGGNEKQALELPRELFEEQAKRRVVVGLLLGEVIRTNELKADEERVKGLIEEMASAYEDPKEVIEFYSKNKELMDNMRNVALEEQAVEAVLAKAKVTEKETTFNELMNQQA
notes: trigger factor, a bacterial ATP-independent chaperone; results are mapped onto the crystal structure pdb 1w26; Monomer-dimer equilibrium; predominantly monomeric under the conditions used (low uM, 0.26 M GdnHCl); also called TF; source: E. coli BL21 (DE3), purified (Ni-His Trap, ULP1 cleavage, HiTrap Q, Superdex 75); not shown: His-Sumo, N-terminal, cleaved
B4: Fluorescein-5-maleimide-labelled trigger factor E326C (natural protein)
chain: MQVSVETTQGLGRRVTITIAADSIETAVKSELVNVAKKVRIDGFRKGKVPMNIVAQRYGASVRQDVLGDLMSRNFIDAIIKEKINPAGAPTYVPGEYKLGEDFTYSVEFEVYPEVELQGLEAIEVEKPIVEVTDADVDGMLDTLRKQQATWKEKDGAVEAEDRVTIDFTGSVDGEEFEGGKASDFVLAMGQGRMIPGFEDGIKGHKAGEEFTIDVTFPEEYHAENLKGKAAKFAINLKKVEERELPELTAEFIKRFGVEDGSVEGLRAEVRKNMERELKSAIRNRVKSQAIEGLVKANDIDVPAALIDSEIDVLRRQAAQRFGGNCKQALELPRELFEEQAKRRVVVGLLLGEVIRTNELKADEERVKGLIEEMASAYEDPKEVIEFYSKNKELMDNMRNVALEEQAVEAVLAKAKVTEKETTFNELMNQQA
modifications: fluorescein-5-maleimide on the cysteine of E326C
notes: Labelling efficiency typically above 92%; also called fluorescently labelling trigger factor; source: E. coli BL21 (DE3), purified (Ni-His Trap, ULP1 cleavage, HiTrap Q, Superdex 75), labelled with fluorescein-5-maleimide; not shown: His-Sumo, N-terminal, cleaved

Tests used:
[1] = target: B3; test: fluorescence polarisation; stopped-flow anisotropy; 0.13 μM labelled denatured GAPDH mixed with 0.13–3.24 μM trigger factor; 0.1 M potassium phosphate pH 7.6, 0.1 M KCl, 1 mM TCEP, 0.26 M GdnHCl, 4 °C; linear fit of kobs against trigger factor concentration; conditions: both partners purified
[2] = target: B3; test: cross-linking; XL-MS; 6 μM denatured GAPDH diluted into buffer A with equimolar trigger factor (0.26 M GdnHCl), 2 h on ice, then 2 mM disuccinimidyl dibutyric urea 2 h on ice; SDS–PAGE and LC–MS; conditions: both partners purified
[3] = target: the molecule itself; test: AUC; sedimentation velocity; 5 μM refolding GAPDH alone or with 15 μM trigger factor; buffer A (0.1 M potassium phosphate pH 7.5, 0.1 M KCl, 1 mM TCEP) with 0.26 M GdnHCl, 4 °C, 40,000 r.p.m.
[4] = target: B4; test: fluorescence polarisation; anisotropy titration; 0.5 μM fluorescein-labelled trigger factor E326C titrated with GdnHCl-denatured GAPDH; buffer A, 4 °C; quadratic fit; apparent; conditions: both partners purified
[5] = target: B2; test: AUC; sedimentation velocity; 5 μM refolding GAPDH alone or with 15 μM trigger factor; buffer A (0.1 M potassium phosphate pH 7.5, 0.1 M KCl, 1 mM TCEP) with 0.26 M GdnHCl, 4 °C, 40,000 r.p.m.; conditions: both partners purified
[6] = target: T1, refolding Vibrio harveyi luciferase (urea-denatured and diluted into refolding buffer) (Vibrio harveyi, UniProt P07740 1-355; P07739 1-324); test: AUC; sedimentation velocity; 2 μM refolding luciferase alone or with 16 μM trigger factor; buffer A with 0.1 M urea, 4 °C, 35,000 r.p.m.; conditions: both partners purified
T1 construct: alpha subunit of the heterodimeric flavin monooxygenase luciferase of Vibrio harveyi; beta subunit of the heterodimeric flavin monooxygenase luciferase of Vibrio harveyi; In the assays the heterodimer was urea-denatured; also called luciferase subunits; source: E. coli (pET21b), purified (Ni-His Trap, Superdex 75); denatured in 5 M urea and diluted into buffer A; not shown: His tag (on the …)
T1 sequence (looked up) 1: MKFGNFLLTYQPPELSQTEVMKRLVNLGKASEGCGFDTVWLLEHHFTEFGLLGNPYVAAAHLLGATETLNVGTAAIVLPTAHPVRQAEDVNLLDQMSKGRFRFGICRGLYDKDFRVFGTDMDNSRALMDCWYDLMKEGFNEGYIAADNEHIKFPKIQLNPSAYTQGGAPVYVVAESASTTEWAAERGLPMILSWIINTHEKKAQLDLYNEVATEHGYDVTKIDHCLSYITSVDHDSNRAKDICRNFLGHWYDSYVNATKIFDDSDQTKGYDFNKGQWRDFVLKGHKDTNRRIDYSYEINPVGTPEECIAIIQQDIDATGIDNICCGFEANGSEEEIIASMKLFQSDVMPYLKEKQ
T1 sequence (looked up) 2: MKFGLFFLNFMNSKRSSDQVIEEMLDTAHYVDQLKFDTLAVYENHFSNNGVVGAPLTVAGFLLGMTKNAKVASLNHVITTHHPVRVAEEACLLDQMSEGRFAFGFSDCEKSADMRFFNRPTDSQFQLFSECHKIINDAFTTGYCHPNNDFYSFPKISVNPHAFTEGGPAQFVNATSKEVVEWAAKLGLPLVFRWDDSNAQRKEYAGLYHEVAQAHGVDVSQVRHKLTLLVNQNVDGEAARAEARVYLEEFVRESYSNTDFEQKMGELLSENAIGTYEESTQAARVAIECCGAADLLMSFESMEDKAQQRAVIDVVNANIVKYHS

[7] = target: T1, refolding Vibrio harveyi luciferase …; test: fluorescence polarisation; anisotropy titration; 0.5 μM fluorescein-labelled trigger factor E326C titrated with urea-denatured luciferase; buffer A, 25 °C; hyperbola fit; apparent; conditions: both partners purified

B1: Alexa Fluor 488-labelled GAPDH (enzyme)
chain: not shown
modifications: CF Fluor 488 A maleimide (called Alexa Fluor 488) on cysteine; the paper says only Cys 149 is solvent-exposed in the native tetramer
notes: glyceraldehyde 3-phosphate dehydrogenase, rabbit; Labelling efficiency typically above 98%; also called fluorophore labelled GAPDH; source: bought: Sigma-Aldrich (G2267), labelled with CF Fluor 488A maleimide, denatured in GdnHCl
Work on B1 yielded a koff [1] of 8.7 s⁻¹ and a kon [1] of 6.6e+06 M⁻¹ s⁻¹.

With B2 the binding result [2] was “binds”, the binding result [3] was “binds” and the Kd [4] was 0.32 µM.

With B3 the “stoichiometry N” value [5] was 1 and the “stoichiometry N” value [6] was 1.

Work on B4 yielded a Kd [7] of 4.5 µM.
